Experiment [1] deals with HBV. The experiment is described as follows: rcDNA and cccDNA in HBV-infected primary human hepatocytes treated with IFNλ1 protein. The class given is cell-based. The following applies: primary human hepatocytes persistently infected with HBV, 15 days treatment. How it is done: Primary human hepatocytes persistently infected with HBV were treated with IFNλ1 protein for 15 days, and rcDNA and cccDNA were quantified.
Primary human hepatocytes persistently infected with HBV for 22 days or longer (PhoenixBio Co., Ltd., Japan) were cultured in a medium containing recombinant human IFN-lambda 1 (R&D systems) with medium replacement every 5 days, and the cells were collected after 15 days.
DNA in the cells were extracted by the sodium iodide method.
The cells were mixed with 200 μL of lysis buffer (10 mM EDTA, 500 mM 2-mercaptoethanol, 50 mM Tris-HCl, 75 mM KCl, 5% sarcosyl, 0.1 μg/μL protease K, pH 8.0), followed by heating at 55° C. for 20 minutes. After addition of 300 μL of a NaI solution (40 mM Tris-HCl, 20 mM EDTA, 7.6 M sodium iodide, coprecipitant), the mixture was allowed to stand at room temperature for 15 minutes. After addition of 600 μL of mixed alcohols (40% isopropanol, 60% 1-butanol), the mixture was cooled on ice for 15 minutes. The mixture was centrifuged at 4° C. at 15,000×g for 20 minutes to precipitate DNA. […]
were used, and an aliquot equivalent to 250 ng gDNA was measured according to the protocol of THUNDERBIRD Probe qPCR Mix (TOYOBO). […]
(§1) were used, and the Plasmid-Safe ATP-dependent DNase-treated product (equivalent to 50 ng total DNA) was measured according to the protocol of THUNDERBIRD Probe qPCR Mix (TOYOBO). […]

The subject of experiment [2] is HBV. The experiment is described as follows: cccDNA in HepG2 cells stably expressing HBV. The class given is cell-based, human. Particulars: 5 days, IRF1 plasmid 0.5 μg/well, IFN-lambda 1 100 ng/mL, or supernatant every day. How it is done:
HepG2 cells made susceptible to HBV infection (HepG2-hNTCP-30 cells) were transfected with a 1.3-fold longer gene of HBV genotype C to prepare cells stably expressing HBV.
The primary human hepatocyte-derived human IRF1 gene (GenBank Accession No. NM_002198.3) was cloned into a pCI-neo Mammalian Expression Vector (Promega) to construct an IRF1 plasmid.
Using Lipofectamine 3000 (Invitrogen), the IRF1 plasmid (0.5 μg/well) was introduced by reverse transfection into HepG2 cells stably expressing HBV (2×10^5 cells/well, 48-well plate).
As an empty plasmid, a pCI-neo Mammalian Expression Vector was used.
Using the culture supernatant of the HepG2 cells stably expressing HBV (2×10^5 cells/well, 48-well plate) transfected with the IRF1 plasmid or the empty plasmid (0.5 μg/well), untransfected HepG2 cells stably expressing HBV (2×10^5 cells/well, 48-well plate) were treated every day for 5 days. Likewise, HepG2 cells stably expressing HBV were treated for 5 days with a medium containing recombinant human IFN-lambda 1 (100 ng/mL, R&D systems).
DNA in the cells were extracted by the sodium iodide method. […]
as §1

B1: IFNλ1 protein: recombinant human IFN-lambda 1 (R&D systems) (protein, UniProt Q8IU54 20-200, looked up)
Interferon lambda-1: GPVPTSKPTTTGKGCHIGRFKSLSPQELASFKKARDALEESLKLKNWSCSSPVFPGNWDLRLLQVRERPVALEAELALTLKVLEAAAGPALEDVLDQPLHTLHHILSQLQACIQPQPTAGPRPRGRLHHWLHRLQEAPKKESAGCLEASVTFNLFRLLTRDLKYVADGNLCLRTSTHPEST
As for B1, in experiment [1], the cccDNA levels result is listed as “reduced in a manner dependent on the amount” and the rcDNA levels result is on record as “reduced in a manner dependent on the amount”. Also, the cccDNA result in experiment [2] is “not reduced”.

Source of the values: US20250041326A1, “THERAPEUTIC AGENT FOR REFRACTORY VIRAL INFECTIONS” (TOKYO METROPOLITAN INSTITUTE OF MEDICAL SCIENCE, priority 2021, published 2025).
